The star is where a group is joined. Decanoyl = CCCCCCCCCC(=O)*; CH2Cl = ClC*

This experiment addresses furine humaine recombinante (Homo sapiens, UniProt P09958). Briefly: Inhibition of furin enzyme activity (cleavage of a fluorescent substrate). It counts as biochemical. As to conditions: reference inhibitor tested at 100 nm. As for the experimental part: L'expérience est réalisée en utilisant une furine humaine recombinante, qui catalyse le clivage d'un substrat spécifique fluorescent.
Le décanoyl-Arg-Val-Lys-Arg-CMK à 100 nm a été utilisé comme inhibiteur de référence de l'activité de la furine.
La furine est pré-incubée pendant 10 minutes à température ambiante en l'absence (contrôle) ou en présence du produit de référence ou de concentrations croissantes du composé testé : «Amyrines purifiées de Protium heptaphyllum»; 25 ppm; 250 ppm et 1000 ppm (v / v). Le produit «Amyrines purifiées de Protium heptaphyllum» , AMY à 1000 PPM correspond à une solution 0,5% en volume du produit HTRE commercialisé par la société Ephyla.
À la fin de l'étape de pré-incubation, un substrat de furine a été ajouté et les conditions expérimentales ont été incubées à nouveau à température ambiante à l'abri de la lumière pendant 5 minutes. Toutes les expériences ont été réalisées en triplicate.
Le composé d'essai " Amyrines purifiées de Protium heptaphyllum " pré-solubilisé à 10 000 ppm dans du DMSO. La solution a ensuite été diluée dans du tampon d'essai afin d'atteindre les concentrations décrite ci-dessus.
Le clivage du substrat fluorescent de furine a été suivi pendant 5 minutes après l'addition du substrat en lisant la fluorescence à 485 nm / 535 nm.
Les résultats sont exprimés en RFU (unités fluorescentes relatives) +/- S.D. (Écart-type).

Sequence of furine humaine recombinante (P09958 108-794): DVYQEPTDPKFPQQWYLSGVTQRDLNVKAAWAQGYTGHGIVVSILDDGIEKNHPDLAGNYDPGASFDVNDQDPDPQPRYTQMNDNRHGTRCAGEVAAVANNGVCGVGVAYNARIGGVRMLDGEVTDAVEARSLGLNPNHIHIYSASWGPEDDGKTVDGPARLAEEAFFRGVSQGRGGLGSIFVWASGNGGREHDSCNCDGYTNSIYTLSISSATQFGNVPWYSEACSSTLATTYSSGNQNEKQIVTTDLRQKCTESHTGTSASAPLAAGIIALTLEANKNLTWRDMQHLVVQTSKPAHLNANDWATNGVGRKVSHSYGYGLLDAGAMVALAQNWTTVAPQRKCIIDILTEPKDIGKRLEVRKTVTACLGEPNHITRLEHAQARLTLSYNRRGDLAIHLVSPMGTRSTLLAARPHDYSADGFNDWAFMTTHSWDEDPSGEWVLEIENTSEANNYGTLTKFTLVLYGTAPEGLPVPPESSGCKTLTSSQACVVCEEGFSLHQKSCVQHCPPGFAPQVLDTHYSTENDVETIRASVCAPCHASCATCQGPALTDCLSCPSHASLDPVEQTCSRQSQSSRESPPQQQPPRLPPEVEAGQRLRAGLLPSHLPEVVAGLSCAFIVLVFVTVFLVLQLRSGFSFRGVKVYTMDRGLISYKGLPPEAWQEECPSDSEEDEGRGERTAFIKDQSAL

For the substance “Decanoyl-Arg-Val-Lys-Arg-CMK (Decanoyl-RVKR-CH2Cl)”, the “inhibition de l'activité de la furine” value was 97,9%.
